B1: Antibody A N93Q (antibody, human IgG1, kappa, V domains shown)
VH: QVQLVQSGGGLVQPGRSLRLSCAASGFTFDDYAMHWVRQAPGKGLEWVSGISWNSGSIGYADSVKGRFTISRDNAKNSLYLQMNSLRAEDTALYYCAKEGLPGLDYWGQGTLVTVSS
VL: DIQMTQSPSSLSASIGDRATITCRASQHVGTYLNWYQQKPGKTPKLLISGAANLQSGVPSRFSGSGSGTDFTLTISSLQPEDFATYYCQQSYQTPPFSFGQGTKVEIKR
notes: Differs from antibody A only by N to Q at position 93 of VL
B2: Antibody A T94V (antibody, human IgG1, kappa, V domains shown)
VH: B1 VH
VL: B1 VL with Q93N, T94V
notes: Differs from antibody A only by T to V at position 94 of VL
B3: Antibody A N93S (antibody, human IgG1, kappa, V domains shown)
VH: B1 VH
VL: B1 VL with Q93S
notes: Differs from antibody A only by N to S at position 93 of VL
B4: Antibody A N93T (antibody, human IgG1, kappa, V domains shown)
VH: B1 VH
VL: B1 VL with Q93T
notes: Differs from antibody A only by N to T at position 93 of VL
B5: Antibody A13 N30Q (antibody, human IgG1, kappa, V domains shown)
VH: QVQLVQSGAEVKKPGASVKVSCEASGYTFTSYGFSWVRQAPGQGLEWMGWISASNGNTYYAQKLQGRVTMTTDTSTSSAYMELRSLRSDDTAVYYCARVYADYADYWGQGTLVTVSS
VL: DIQMTQSPSSVSASVGDRVTITCRASQGIQTWLAWYQQKPGKAPKLLIYAASSLKSGVPSRFSGSGSGADFTLTISSLQPEDFATYYCQQANSFPLTFGGGTKVEIKR
notes: Differs from antibody A13 only by N to Q at position 30 of VL
B6: Antibody A13 T31V (antibody, human IgG1, kappa, V domains shown)
VH: B5 VH
VL: B5 VL with Q30N, T31V
notes: Differs from antibody A13 only by T to V at position 31 of VL
B7: Antibody A13 N30S (antibody, human IgG1, kappa, V domains shown)
VH: B5 VH
VL: B5 VL with Q30S
notes: Differs from antibody A13 only by N to S at position 30 of VL
B8: Antibody A13 N30T (antibody, human IgG1, kappa, V domains shown)
VH: B5 VH
VL: B5 VL with Q30T
notes: Differs from antibody A13 only by N to T at position 30 of VL

Where a chain is given by its changes, count along the chain named.

The first assay has as its target T1, His-tagged human HER3 antigen (human, UniProt P21860 20-643).
T1 construct: Soluble antigen used as analyte in SPR; not shown: His tag
Description: SPR, Biacore 8K; antibody captured, His-tagged human HER3 antigen 6.25-400 nM as analyte; 1:1 Langmuir.
The term Kd denotes the free concentration of one partner at which half of the binding sites on the other are occupied at equilibrium, for simple one-to-one binding. A low value points to tighter binding. A word on the koff: it is the rate constant with which the complex falls apart. Low readings indicate a long-lived complex, high ones a short-lived complex. As a reminder, the kon is the second-order rate constant of association. A higher kon goes with fast association. B1 came in with a dissociation constant (Kd) of 51.4 nM, a koff of 0.0295 s⁻¹ and an on-rate constant (kon) of 573000 M⁻¹ s⁻¹.

As for B2, the Kd turned out to be 15 nM, the off-rate (koff) stood at 0.0108 s⁻¹ and the kon stood at 717000 M⁻¹ s⁻¹.

Regarding B3, the dissociation constant (Kd) amounted to 32.6 nM, the koff came to 0.0215 s⁻¹ and the kon was 659000 M⁻¹ s⁻¹.

As to B4, the affinity, expressed as Kd, was 97.9 nM; the koff was determined as 0.0329 s⁻¹; the kon is 336000 M⁻¹ s⁻¹.

For the next assay, the target named is T2, His-tagged human MET antigen (human, UniProt P08581 25-932).
T2 construct: Soluble antigen used as analyte in SPR; not shown: His tag
T2 sequence (P08581 25-932 limits assumed): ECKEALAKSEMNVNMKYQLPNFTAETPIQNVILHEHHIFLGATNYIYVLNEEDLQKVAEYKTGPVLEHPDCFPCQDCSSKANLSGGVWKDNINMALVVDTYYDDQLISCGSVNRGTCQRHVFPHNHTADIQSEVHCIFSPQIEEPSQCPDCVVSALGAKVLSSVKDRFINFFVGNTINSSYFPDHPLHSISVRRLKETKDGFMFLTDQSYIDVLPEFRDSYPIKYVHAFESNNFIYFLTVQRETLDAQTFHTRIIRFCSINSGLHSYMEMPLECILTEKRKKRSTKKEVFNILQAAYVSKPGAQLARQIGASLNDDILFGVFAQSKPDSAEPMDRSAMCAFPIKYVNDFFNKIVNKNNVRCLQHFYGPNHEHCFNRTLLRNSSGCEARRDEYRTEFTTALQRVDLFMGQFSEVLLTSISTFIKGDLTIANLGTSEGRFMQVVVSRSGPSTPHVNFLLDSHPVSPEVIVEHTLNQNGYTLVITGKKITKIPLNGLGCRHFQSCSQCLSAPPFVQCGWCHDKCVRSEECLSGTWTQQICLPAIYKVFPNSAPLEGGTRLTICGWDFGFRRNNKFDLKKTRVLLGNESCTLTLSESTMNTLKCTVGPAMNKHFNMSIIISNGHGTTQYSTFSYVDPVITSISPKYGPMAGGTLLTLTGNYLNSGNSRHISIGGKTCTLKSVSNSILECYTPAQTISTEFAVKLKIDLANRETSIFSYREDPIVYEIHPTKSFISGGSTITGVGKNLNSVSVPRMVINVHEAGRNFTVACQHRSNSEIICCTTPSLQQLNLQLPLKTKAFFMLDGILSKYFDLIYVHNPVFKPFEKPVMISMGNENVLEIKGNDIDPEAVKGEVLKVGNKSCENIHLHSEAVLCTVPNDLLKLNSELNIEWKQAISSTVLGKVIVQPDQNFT
Description: SPR, Biacore 8K; antibody captured, His-tagged human MET antigen 6.25-400 nM as analyte; 1:1 Langmuir. For orientation: SPR reads the build-up and loss of mass on a sensor chip optically.
The molecule B5 returned a Kd of 17.6 nM, a koff of 0.00146 s⁻¹ and a kon of 83000 M⁻¹ s⁻¹.

B6 came in with a dissociation constant (Kd) of 93.1 nM, an off-rate constant (koff) of 0.00521 s⁻¹ and a kon of 56000 M⁻¹ s⁻¹.

With B7, the affinity, expressed as Kd, was 7.69 nM; the off-rate constant (koff) was found to be 0.000776 s⁻¹; the kon was found to be 101000 M⁻¹ s⁻¹.

The molecule B8 had a Kd of 17 nM, a koff of 0.0018 s⁻¹ and an on-rate constant (kon) of 106000 M⁻¹ s⁻¹.
